In publication PMC5021801:

Assays:
[1] = target: hypercleavable mutant form of TgAMA1 (AMA1^L/G) on Toxoplasma gondii tachyzoites (Toxoplasma gondii) (UniProt B6KAM0)
[2] = target: FLAG-tagged wild-type TgAMA1 on Toxoplasma gondii tachyzoites (Toxoplasma gondii) (UniProt B6KAM0)

D3 domain of TgRON2 fused to glutathione S-transferase (GST-D3) (domain or fragment)
constitutive cleavage and shedding of AMA1^L/G, microneme secretion assay, saturating (1 µM) GST-D3 against GST; percent inhibition [1]: 50%
amount of FLAG-tagged TgAMA1 ectodomain shed into the supernatant, constitutive microneme secretion assay, against GST-treated controls; dose dependent from 0.01 to 1 µM GST-D3, fold decrease at 5 µM [2]: 5.7 fold
